Source: the Human Domainome abundance scans (Beltran et al. 2025)
± gives the uncertainty stated by the source.

B1: CD2-associated protein, residues 271 to 331; numbered along this chain, Q9Y5K6 (parent)
chain: KEYCRTLFAYEGTNEDELTFKEGEIIHLISKETGEAGWWRGELNGKEGVFPDNFAVQINEL

Variants of: B1
Assay: abundance fitness (aPCA) (normalised: wild type 0, dead -1); higher = more abundant; growth selection in yeast, the domain comes from the species named
Settings: Homo sapiens

Variant	abundance fitness
KEYCRTLFAYEGTNEDELTFKEGEIIHLISKETGEAGWWRGELNGKEGVSPDNFAVQINEL [F50S]	-0.818 ± 0.11
KEYCRTLFAYEGTNEDELTFKEGEIIHLISKETGEAGWWRGELNGKEGVLPDNFAVQINEL [F50L]	-0.668 ± 0.07
KEYCRTLFAYEGTNEDELTFKEGEIIHLISKETGEAGWWRGELNGKEGVAPDNFAVQINEL [F50A]	-0.539 ± 0.082
KEYCRTLFAYEGTNEDELTFKEGEIIHLISKETGEAGWWRGELNGKEGVDPDNFAVQINEL [F50D]	-0.626 ± 0.13
KEYCRTLFAYEGTNEDELTFKEGEIIHLISKETGEAGWWRGELNGKEGVQPDNFAVQINEL [F50Q]	-0.732 ± 0.12
KEYCRTLFAYEGTNEDELTFKEGEIIHLISKETGEAGWWRGELNGKEGVNPDNFAVQINEL [F50N]	-0.809 ± 0.36
KEYCRTLFAYEGTNEDELTFKEGEIIHLISKETGEAGWWRGELNGKEGVWPDNFAVQINEL [F50W]	-0.792 ± 0.11
KEYCRTLFAYEGTNEDELTFKEGEIIHLISKETGEAGWWRGELNGKEGVVPDNFAVQINEL [F50V]	-0.674 ± 0.086
KEYCRTLFAYEGTNEDELTFKEGEIIHLISKETGEAGWWRGELNGKEGVIPDNFAVQINEL [F50I]	-0.822 ± 0.2
KEYCRTLFAYEGTNEDELTFKEGEIIHLISKETGEAGWWRGELNGKEGVMPDNFAVQINEL [F50M]	-0.845 ± 0.14
KEYCRTLFAYEGTNEDELTFKEGEIIHLISKETGEAGWWRGELNGKEGVTPDNFAVQINEL [F50T]	-0.705 ± 0.12
KEYCRTLFAYEGTNEDELTFKEGEIIHLISKETGEAGWWRGELNGKEGVRPDNFAVQINEL [F50R]	-0.614 ± 0.066
KEYCRTLFAYEGTNEDELTFKEGEIIHLISKETGEAGWWRGELNGKEGVCPDNFAVQINEL [F50C]	-0.516 ± 0.16
KEYCRTLFAYEGTNEDELTFKEGEIIHLISKETGEAGWWRGELNGKEGVPPDNFAVQINEL [F50P]	-0.973 ± 0.24
KEYCRTLFAYEGTNEDELTFKEGEIIHLISKETGEAGWWRGELNGKEGVKPDNFAVQINEL [F50K]	-0.993 ± 0.17
KEYCRTLFAYEGTNEDELTFKEGEIIHLISKETGEAGWWRGELNGKEGNFPDNFAVQINEL [V49N]	-0.099 ± 0.11
KEYCRTLFAYEGTNEDELTFKEGEIIHLISKETGEAGWWRGELNGKEGCFPDNFAVQINEL [V49C]	-0.11 ± 0.058
KEYCRTLFAYEGTNEDELTFKEGEIIHLISKETGEAGWWRGELNGKEGGFPDNFAVQINEL [V49G]	-0.628 ± 0.053
KEYCRTLFAYEGTNEDELTFKEGEIIHLISKETGEAGWWRGELNGKEGTFPDNFAVQINEL [V49T]	-0.129 ± 0.083
KEYCRTLFAYEGTNEDELTFKEGEIIHLISKETGEAGWWRGELNGKEGRFPDNFAVQINEL [V49R]	0.029 ± 0.036
KEYCRTLFAYEGTNEDELTFKEGEIIHLISKETGEAGWWRGELNGKEGYFPDNFAVQINEL [V49Y]	-0.022 ± 0.1
KEYCRTLFAYEGTNEDELTFKEGEIIHLISKETGEAGWWRGELNGKEGMFPDNFAVQINEL [V49M]	-0.082 ± 0.067

Variant	abundance fitness
KEYCRTLFAYEGTNEDELTFKEGEIIHLISKETGEAGWWRGELNGKEGAFPDNFAVQINEL [V49A]	-0.319 ± 0.065
KEYCRTLFAYEGTNEDELTFKEGEIIHLISKETGEAGWWRGELNGKEGWFPDNFAVQINEL [V49W]	-0.111 ± 0.07
KEYCRTLFAYEGTNEDELTFKEGEIIHLISKETGEAGWWRGELNGKEGQFPDNFAVQINEL [V49Q]	-0.302 ± 0.077
KEYCRTLFAYEGTNEDELTFKEGEIIHLISKETGEAGWWRGELNGKEGKFPDNFAVQINEL [V49K]	0.003 ± 0.089
KEYCRTLFAYEGTNEDELTFKEGEIIHLISKETGEAGWWRGELNGKEGPFPDNFAVQINEL [V49P]	-0.713 ± 0.11
KEYCRTLFAYEGTNEDELTFKEGEIIHLISKETGEAGWWRGELNGKEGHFPDNFAVQINEL [V49H]	-0.482 ± 0.14
KEYCRTLFAYEGTNEDELTFKEGEIIHLISKETGEAGWWRGELNGKEGSFPDNFAVQINEL [V49S]	-0.297 ± 0.06
KEYCRTLFAYEGTNEDELTFKEGEIIHLISKETGEAGWWRGELNGKEGLFPDNFAVQINEL [V49L]	-0.01 ± 0.038
KEYCRTLFAYEGTNEDELTFKEGEIIHLISKETGEAGWWRGELNGKEGEFPDNFAVQINEL [V49E]	-0.674 ± 0.17
KEYCRTLFAYEGTNEDELTFKEGEIIHLISKETGEAGWWRGELNGKENVFPDNFAVQINEL [G48N]	-0.998 ± 0.3
KEYCRTLFAYEGTNEDELTFKEGEIIHLISKETGEAGWWRGELNGKEWVFPDNFAVQINEL [G48W]	-0.949 ± 0.074
KEYCRTLFAYEGTNEDELTFKEGEIIHLISKETGEAGWWRGELNGKEKVFPDNFAVQINEL [G48K]	-0.746 ± 0.17
KEYCRTLFAYEGTNEDELTFKEGEIIHLISKETGEAGWWRGELNGKEFVFPDNFAVQINEL [G48F]	-1.05 ± 0.27
KEYCRTLFAYEGTNEDELTFKEGEIIHLISKETGEAGWWRGELNGKERVFPDNFAVQINEL [G48R]	-0.856 ± 0.059
KEYCRTLFAYEGTNEDELTFKEGEIIHLISKETGEAGWWRGELNGKECVFPDNFAVQINEL [G48C]	-1.01 ± 0.15
KEYCRTLFAYEGTNEDELTFKEGEIIHLISKETGEAGWWRGELNGKEQVFPDNFAVQINEL [G48Q]	-0.93 ± 0.16
KEYCRTLFAYEGTNEDELTFKEGEIIHLISKETGEAGWWRGELNGKEDVFPDNFAVQINEL [G48D]	-0.695 ± 0.15
KEYCRTLFAYEGTNEDELTFKEGEIIHLISKETGEAGWWRGELNGKETVFPDNFAVQINEL [G48T]	-1.07 ± 0.15
KEYCRTLFAYEGTNEDELTFKEGEIIHLISKETGEAGWWRGELNGKEAVFPDNFAVQINEL [G48A]	-0.65 ± 0.093
KEYCRTLFAYEGTNEDELTFKEGEIIHLISKETGEAGWWRGELNGKELVFPDNFAVQINEL [G48L]	-0.753 ± 0.061
KEYCRTLFAYEGTNEDELTFKEGEIIHLISKETGEAGWWRGELNGKEIVFPDNFAVQINEL [G48I]	-0.725 ± 0.2
